This series deals with the molecule itself. The series is described as follows: crystal structure.

B1: minimal functional chicken ASIC1 construct (cASIC1mfc) (domain or fragment, UniProt Q1XA76 2-466, looked up)
chain: MDLKVDEEEVDSGQPVSIQAFASSSTLHGISHIFSYERLSLKRVVWALCFMGSLALLALVCTNRIQYYFLYPHVTKLDEVAATRLTFPAVTFCNLNEFRFSRVTKNDLYHAGELLALLNNRYEIPDTQTADEKQLEILQDKANFRNFKPKPFNMLEFYDRAGHDIREMLLSCFFRGEQCSPEDFKVVFTRYGKCYTFNAGQDGKPRLITMKGGTGNGLEIMLDIQQDEYLPVWGETDETSFEAGIKVQIHSQDEPPLIDQLGFGVAPGFQTFVSCQEQRLIYLPPPWGDCKATTGDSEFYDTYSITACRIDCETRYLVENCNCRMVHMPGDAPYCTPEQYKECADPALDFLVEKDNEYCVCEMPCNVTRYGKELSMVKIPSKASAKYLAKKYNKSEQYIGENILVLDIFFEALNYETIEQKKAYEVAGLLGDIGGQMGLFIGASILTVLELFDYAYEVIKHRLCR
Regarding B1, the stoichiometry N – broadly, the number of molecules, sites or subunits per partner or assembly – was 3.

(Values after publication PMC2845979 (Nature, 2009).)
